To fix the notation:
T1: TNFR1 (Homo sapiens, UniProt P19438)
T1 chain: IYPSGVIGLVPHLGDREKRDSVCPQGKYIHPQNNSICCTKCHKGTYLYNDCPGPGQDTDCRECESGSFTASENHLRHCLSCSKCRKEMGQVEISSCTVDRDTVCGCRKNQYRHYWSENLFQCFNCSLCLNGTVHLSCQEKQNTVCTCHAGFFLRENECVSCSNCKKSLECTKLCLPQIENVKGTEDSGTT

B1: E54L (designed binder)
chain: SMEEEVEKAAKEYEKKKKEAIEKHLEKLKAKDKEAAERFLKELEEAAKEYAKDLAKTMSEEEAKRRAKKYKEKVLLSELSEEEQKEIKEAEEKLVRTILKYVEEAAK
B2: A36M (designed binder)
chain: B1 chain with A36M, L54E
B3: A90D (designed binder)
chain: B1 chain with L54E, A90D
B4: I98R (designed binder)
chain: B1 chain with L54E, I98R
B5: K8Y (designed binder)
chain: B1 chain with K8Y, L54E
B6: I87T (designed binder)
chain: B1 chain with L54E, I87T
B7: E26G (designed binder)
chain: B1 chain with E26G, L54E
B8: E54D (designed binder)
chain: B1 chain with L54D
B9: K71L (designed binder)
chain: B1 chain with L54E, K71L
B10: A90W (designed binder)
chain: B1 chain with L54E, A90W
B11: T97L (designed binder)
chain: B1 chain with L54E, T97L
B12: K88A (designed binder)
chain: B1 chain with L54E, K88A
B13: K69H (designed binder)
chain: B1 chain with L54E, K69H
B14: L25Y (designed binder)
chain: B1 chain with L25Y, L54E
B15: A9E (designed binder)
chain: B1 chain with A9E, L54E
B16: E45T (designed binder)
chain: B1 chain with E45T, L54E
B17: A30Q (designed binder)
chain: B1 chain with A30Q, L54E
B18: M58W (designed binder)
chain: B1 chain with L54E, M58W
B19: A51N (designed binder)
chain: B1 chain with A51N, L54E
B20: V102D (designed binder)
chain: B1 chain with L54E, V102D
B21: A90K (designed binder)
chain: B1 chain with L54E, A90K
B22: T97D (designed binder)
chain: B1 chain with L54E, T97D
B23: E49S (designed binder)
chain: B1 chain with E49S, L54E
B24: Y101V (designed binder)
chain: B1 chain with L54E, Y101V
B25: E78P (designed binder)
chain: B1 chain with L54E, E78P
B26: A105I (designed binder)
chain: B1 chain with L54E, A105I
B27: I98E (designed binder)
chain: B1 chain with L54E, I98E
B28: E12N (designed binder)
chain: B1 chain with E12N, L54E
B29: K69M (designed binder)
chain: B1 chain with L54E, K69M
B30: L99K (designed binder)
chain: B1 chain with L54E, L99K
B31: K88I (designed binder)
chain: B1 chain with L54E, K88I
B32: I21D (designed binder)
chain: B1 chain with I21D, L54E
B33: E14N (designed binder)
chain: B1 chain with E14N, L54E
B34: E42V (designed binder)
chain: B1 chain with E42V, L54E
B35: A20S (designed binder)
chain: B1 chain with A20S, L54E
B36: K29L (designed binder)
chain: B1 chain with K29L, L54E
B37: K8H (designed binder)
chain: B1 chain with K8H, L54E
B38: E37F (designed binder)
chain: B1 chain with E37F, L54E
B39: S80N (designed binder)
chain: B1 chain with L54E, S80N
B40: K8T (designed binder)
chain: B1 chain with K8T, L54E
B41: K31E (designed binder)
chain: B1 chain with K31E, L54E
B42: I87P (designed binder)
chain: B1 chain with L54E, I87P
B43: E89K (designed binder)
chain: B1 chain with L54E, E89K
B44: E83K (designed binder)
chain: B1 chain with L54E, E83K
B45: A63D (designed binder)
chain: B1 chain with L54E, A63D
B46: L28S (designed binder)
chain: B1 chain with L28S, L54E
B47: K88L (designed binder)
chain: B1 chain with L54E, K88L
B48: K27R (designed binder)
chain: B1 chain with K27R, L54E
B49: A90F (designed binder)
chain: B1 chain with L54E, A90F
B50: E26R (designed binder)
chain: B1 chain with E26R, L54E
B51: E34K (designed binder)
chain: B1 chain with E34K, L54E
B52: E5F (designed binder)
chain: B1 chain with E5F, L54E
B53: Y50T (designed binder)
chain: B1 chain with Y50T, L54E
B54: K11V (designed binder)
chain: B1 chain with K11V, L54E
B55: K27Q (designed binder)
chain: B1 chain with K27Q, L54E

Residue numbers refer to the chain shown, from its start. Numbers in names are those of the source.

The assay concerns the target T1, TNFR1. As to the kind of experiment: yeast display SC50.
For the molecule B1, the “apparent Kd (screen)” value was found to be 4.39 nM.
As for B2, the figure is 0.446 nM; as for B3, 0.446 nM; as for B4, 1.4 nM.
With B5 the figure was 0.956 nM; with B6, 12.5 nM.
On to B7, for which the “apparent Kd (screen)” value is 0.593 nM.
As for B8, the figure is 20.2 nM; as for B9, 0.653 nM.
For B10, the “apparent Kd (screen)” value worked out at 0.49 nM.
As for B11, the figure is 1.69 nM; as for B12, 0.405 nM; as for B13, 0.49 nM.
With B14 the figure was 0.446 nM; with B15, 0.446 nM.
With B16 the figure was 2.73 nM.
As to B17, the “apparent Kd (screen)” value was found to be 0.593 nM.
With B18 the figure was 18.3 nM; with B19, 12.5 nM; with B20, 0.539 nM.
As for B21, the figure is 0.956 nM; as for B22, 0.446 nM; as for B23, 1.27 nM.
As for B24, the figure is 0.446 nM; as for B25, 2.73 nM; as for B26, 1.69 nM.
Take B27: the “apparent Kd (screen)” value came out at 4.39 nM.
As for B28, the figure is 1.16 nM; as for B29, 0.49 nM.
In the case of B30, the “apparent Kd (screen)” value came out at 7.78 nM.
With B31 the figure was 0.446 nM.
In the case of B32, the “apparent Kd (screen)” value stood at 10.4 nM.
On to B33, for which the “apparent Kd (screen)” value was 5.31 nM.
As for B34, the figure is 1.16 nM.
B35: the “apparent Kd (screen)” value is 0.446 nM.
As for B36, the figure is 0.79 nM; as for B37, 0.956 nM.
With B38 the figure was 0.49 nM; with B39, 2.73 nM.
With B40 the figure was 1.16 nM; with B41, 1.05 nM.
Regarding B42, the “apparent Kd (screen)” value is 22.2 nM.
B43: the “apparent Kd (screen)” value is 2.73 nM.
As for B44, the figure is 0.593 nM; as for B45, 10.4 nM.
As for B46, the figure is 0.49 nM; as for B47, 0.49 nM; as for B48, 0.869 nM.
As for B49, the figure is 0.49 nM; as for B50, 0.593 nM; as for B51, 0.539 nM.
In the case of B52, the “apparent Kd (screen)” value amounted to 1.05 nM.
As for B53, the figure is 1.16 nM; as for B54, 0.593 nM.
As for B55, the figure is 0.593 nM.

The values above are taken from paper PMC12416549 (2024).
